Measurements: PMC3508296

Molecular target: fibronectin (UniProt P02751)
Test: SPR

fibronectin, sequence (P02751 32-2477): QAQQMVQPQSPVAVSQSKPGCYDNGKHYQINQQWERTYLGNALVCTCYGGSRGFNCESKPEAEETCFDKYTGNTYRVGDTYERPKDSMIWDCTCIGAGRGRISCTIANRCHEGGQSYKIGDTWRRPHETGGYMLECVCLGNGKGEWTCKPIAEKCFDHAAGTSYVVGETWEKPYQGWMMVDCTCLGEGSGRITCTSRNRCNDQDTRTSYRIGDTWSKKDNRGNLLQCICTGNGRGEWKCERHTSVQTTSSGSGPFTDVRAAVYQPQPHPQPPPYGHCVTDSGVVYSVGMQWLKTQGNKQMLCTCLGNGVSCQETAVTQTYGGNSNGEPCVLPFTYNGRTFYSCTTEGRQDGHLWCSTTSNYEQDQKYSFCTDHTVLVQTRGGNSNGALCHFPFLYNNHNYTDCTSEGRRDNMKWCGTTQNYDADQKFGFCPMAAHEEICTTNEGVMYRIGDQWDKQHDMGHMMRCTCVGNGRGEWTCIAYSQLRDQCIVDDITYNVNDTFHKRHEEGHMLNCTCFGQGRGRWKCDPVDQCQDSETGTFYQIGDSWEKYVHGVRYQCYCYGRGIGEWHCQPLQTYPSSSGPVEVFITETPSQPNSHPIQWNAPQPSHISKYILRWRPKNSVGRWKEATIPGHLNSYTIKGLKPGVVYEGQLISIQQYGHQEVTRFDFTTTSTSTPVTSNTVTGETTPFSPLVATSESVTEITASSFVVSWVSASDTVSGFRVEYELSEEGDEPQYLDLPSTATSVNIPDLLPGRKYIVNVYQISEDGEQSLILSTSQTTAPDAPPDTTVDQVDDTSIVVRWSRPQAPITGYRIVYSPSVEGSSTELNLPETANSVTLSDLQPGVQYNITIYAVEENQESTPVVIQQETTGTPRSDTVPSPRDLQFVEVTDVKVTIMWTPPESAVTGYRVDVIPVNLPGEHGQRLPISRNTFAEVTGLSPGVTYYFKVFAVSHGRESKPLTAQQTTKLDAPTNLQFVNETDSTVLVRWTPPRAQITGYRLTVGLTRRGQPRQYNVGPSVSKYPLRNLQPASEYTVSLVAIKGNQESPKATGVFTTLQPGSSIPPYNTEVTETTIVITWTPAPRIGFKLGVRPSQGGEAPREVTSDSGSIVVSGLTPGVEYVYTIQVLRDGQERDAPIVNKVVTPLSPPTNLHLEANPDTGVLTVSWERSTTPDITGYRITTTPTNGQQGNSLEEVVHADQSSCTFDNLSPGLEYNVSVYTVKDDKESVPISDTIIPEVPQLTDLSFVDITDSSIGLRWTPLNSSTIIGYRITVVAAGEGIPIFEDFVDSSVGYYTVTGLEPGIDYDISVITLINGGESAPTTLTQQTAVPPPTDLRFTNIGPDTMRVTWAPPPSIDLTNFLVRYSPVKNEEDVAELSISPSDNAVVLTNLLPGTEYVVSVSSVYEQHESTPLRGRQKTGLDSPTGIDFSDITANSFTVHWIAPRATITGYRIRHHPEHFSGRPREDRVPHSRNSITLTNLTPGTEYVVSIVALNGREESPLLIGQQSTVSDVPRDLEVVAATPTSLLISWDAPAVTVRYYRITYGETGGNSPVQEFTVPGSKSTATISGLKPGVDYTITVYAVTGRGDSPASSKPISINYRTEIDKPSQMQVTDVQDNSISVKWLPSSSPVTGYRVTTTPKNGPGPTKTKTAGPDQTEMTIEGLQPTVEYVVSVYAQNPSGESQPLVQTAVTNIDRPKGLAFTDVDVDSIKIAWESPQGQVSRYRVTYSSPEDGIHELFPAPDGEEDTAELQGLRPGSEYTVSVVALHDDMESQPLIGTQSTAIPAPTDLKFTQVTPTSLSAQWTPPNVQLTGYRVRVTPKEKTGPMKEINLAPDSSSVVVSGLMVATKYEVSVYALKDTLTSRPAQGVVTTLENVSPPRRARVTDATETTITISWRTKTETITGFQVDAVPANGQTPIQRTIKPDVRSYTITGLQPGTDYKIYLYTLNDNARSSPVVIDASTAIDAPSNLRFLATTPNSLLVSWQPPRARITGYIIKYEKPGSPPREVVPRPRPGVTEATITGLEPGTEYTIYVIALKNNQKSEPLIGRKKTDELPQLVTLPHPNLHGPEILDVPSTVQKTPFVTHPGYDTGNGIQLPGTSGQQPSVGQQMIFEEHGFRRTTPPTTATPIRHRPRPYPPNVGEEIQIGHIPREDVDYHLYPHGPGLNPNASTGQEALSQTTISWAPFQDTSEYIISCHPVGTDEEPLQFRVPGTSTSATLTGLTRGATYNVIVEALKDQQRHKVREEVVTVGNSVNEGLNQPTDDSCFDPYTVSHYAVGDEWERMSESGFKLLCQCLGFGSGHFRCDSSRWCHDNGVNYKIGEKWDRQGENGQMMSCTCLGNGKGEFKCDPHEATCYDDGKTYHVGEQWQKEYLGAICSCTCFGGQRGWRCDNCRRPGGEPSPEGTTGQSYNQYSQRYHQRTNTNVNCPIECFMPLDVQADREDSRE

| Substance | Kd [nM] | koff [s⁻¹] | kon [M⁻¹ s⁻¹] | t1/2 (calculated from Koff) [s] |
| --- | --- | --- | --- | --- |
| BB0347 (natural protein; other documents disagree on this pair) | 640 | 0.16 | 265000 | – |
| BBK32 (from UniProt O50835 1-354) (natural protein; other documents disagree on this pair) | 19 | 0.1 | 5.21e+06 | 6.93 |
